The values that follow come from US20250064983A1, “COMPOSITIONS AND METHODS FOR TREATING A CARDIAC DISEASE” (The Children's Medical Center Corporation, priority 2022, published 2025).

In one data set the target is CaMKIIδ (Homo sapiens, UniProt Q13557). The experiment in a line: in vitro inhibition of CaMKIIδ, bioluminescent ADP monitoring assay (ADP-GLO). The class given is biochemical. To be noted: purified polypeptides. Here is the method:
FIG. 4 provides a schematic illustrating the design of an in vitro experiment to evaluate the impact of the purified polypeptides described in FIG. 2D and shown in the left portion of FIG. 4 on CaMKIIδ (an isomer of CaMKII) activity. Activity of CaMKIIδ was measured using a bioluminescent and homogeneous ADP monitoring assay for kinases (ADP-GLO™), which is described in Zegzouti, et al. “ADP-Glo: A Bioluminescent and Homogeneous ADP Monitoring Assay for Kinases,” ASSAY and Drug Development Technologies, December 2009, 560-572, doi.org/10.1089/adt.2009.0222, the disclosure of which is incorporated herein by reference in its entirety for all purposes.
Inhibition of CaMKIIδ activity by the polypeptides was evaluated using a bioluminescent and homogeneous ADP monitoring assay for kinases (ADP-GLO™), which is described in Zegzouti, et al. “ADP-Glo: A Bioluminescent and Homogeneous ADP Monitoring Assay for Kinases,” ASSAY and Drug Development Technologies, December 2009, 560-572, doi.org/10.1089/adt.2009.0222, the disclosure of which is incorporated herein by reference in its entirety for all purposes (FIG. 4).
(ADP-Glo turns the ADP formed in a reaction into a luminescent signal.)

A further data set deals with LKB1 knockout mice. The data set is described as follows: Example 5: beat-to-beat variability (EKG) in LKB1 knockout mice (AF model). The class given is in vivo, mouse. The source says:
Two different atrial fibrillation (AF) mouse models were used to test the efficacy of AIP×5 at treating AF of different origins. The two different AF mouse models were liver kinase B1 (LKB1) knock out mice and T-box transcription factor 5 (Tbx5) knock out mice.
LKB1-floxed or Tbx5-floxed mice were used to test the efficacy of AIP×5. AAV-NPPA-Cre was then used to conditionally knock out LKB1 or Tbx5 from the atria of the mice. NPPA is an atria specific promoter, ensuring that Cre recombinase directed knockout of LKB1 or Tbx5 was restricted to the atria. AAV-NPPA-FP (fluorescent protein) was used as a control virus. AAV-NPPA-FP has no Cre, and therefore the gene of interest is not knocked out. Uninjected mice were also included as a control to account for any effects caused by AAV injections. AAV-cTnT-AIP×5 or AAV-cTnT-CN19o were both tested as potential therapies to AF.
In short, P3 LKB1-floxed or Tbx5-floxed mice were injected (or not injected in the uninjected controls), and then EKG measurements of the mice were taken every two weeks starting at P14. At 12 weeks, the mice were sacrificed, and the sacrificed mice were tested for protein expression.
AF was calculated using the standard deviation of the beat-to-beat timing differences. A high beat-to-beat variability when sedated was indicative of atrial misfiring.
Statistical significance in the tests illustrated in FIGS. 10 and 11 was conducted using a 2-way Anova with post-hoc Dunnett's multiple comparisons to control (FP) group.

Another data set has as its system CaMKII. To be noted: FIG. 2A, in vitro system of the cited papers; cited from earlier work.
Another data set has as its target CaMKIIδ, Q13557. The data set is described as follows: cell-based or functional assay.
The target in the next data set is T1, AIPx5 multimer.
T1 chain: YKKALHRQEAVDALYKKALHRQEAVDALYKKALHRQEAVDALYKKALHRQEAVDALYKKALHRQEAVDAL

Data set [1] deals with T2, autocamtide-2-related inhibitory peptide (AIP).
T2 chain: YKKALHRQEAVDAL

“Also recorded” adds a separate entry of the source. Where no end group is shown, it is not given here.

Sequence of CaMKIIδ (Q13557 1-478): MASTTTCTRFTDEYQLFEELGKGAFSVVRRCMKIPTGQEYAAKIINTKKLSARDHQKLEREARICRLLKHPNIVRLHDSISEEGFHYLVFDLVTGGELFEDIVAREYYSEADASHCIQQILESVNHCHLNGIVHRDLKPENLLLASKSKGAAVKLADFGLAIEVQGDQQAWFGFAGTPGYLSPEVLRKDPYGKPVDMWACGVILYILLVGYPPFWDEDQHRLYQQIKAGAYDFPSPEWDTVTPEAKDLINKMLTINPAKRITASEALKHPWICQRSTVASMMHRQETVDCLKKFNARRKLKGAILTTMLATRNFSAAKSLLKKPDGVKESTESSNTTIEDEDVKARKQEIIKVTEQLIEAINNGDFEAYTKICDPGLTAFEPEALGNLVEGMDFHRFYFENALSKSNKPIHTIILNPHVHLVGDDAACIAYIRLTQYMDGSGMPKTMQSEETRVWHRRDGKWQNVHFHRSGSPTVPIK
Sequence of CaMKIIδ, Q13557 (Q13557 whole entry, stated change not applied): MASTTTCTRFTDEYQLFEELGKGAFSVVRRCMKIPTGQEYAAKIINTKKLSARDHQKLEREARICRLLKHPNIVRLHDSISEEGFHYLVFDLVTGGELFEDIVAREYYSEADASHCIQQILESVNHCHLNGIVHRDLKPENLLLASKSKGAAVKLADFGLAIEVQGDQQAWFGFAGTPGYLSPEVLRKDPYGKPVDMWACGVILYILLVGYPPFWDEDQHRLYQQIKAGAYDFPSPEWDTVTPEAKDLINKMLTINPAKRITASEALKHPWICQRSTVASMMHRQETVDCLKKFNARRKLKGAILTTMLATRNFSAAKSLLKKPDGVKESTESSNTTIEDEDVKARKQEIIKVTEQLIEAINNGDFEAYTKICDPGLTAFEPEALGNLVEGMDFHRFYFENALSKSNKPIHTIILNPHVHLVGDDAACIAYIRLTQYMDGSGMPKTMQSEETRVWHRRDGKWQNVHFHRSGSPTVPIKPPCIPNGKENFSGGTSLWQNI

Usually EC50 stands for the concentration needed to bring the measured effect to its halfway point. Lower therefore signals higher potency in that assay. Molecule “KRAPKLGQIGRQKAVDIEDKRAPKLGQIGRQKAVDIEDKRAPKLGQIGRQKAVDIED [CN19oX3]” gave an EC50 on CaMKIIδ of 2.1 nM. With “KRAPKLGQIGRQKAVDIED [CN19o, reference compound]”, the concentration giving a half-maximal response (EC50) on CaMKIIδ was determined as 1.6 nM. The “beat-to-beat variability compared to LKB1 knockout mice alone” value with LKB1 knockout mice was “performed worse in measures of beat-to-beat variability than LKB1 knockout mice alone”. Besides, in the data set on LKB1 knockout mice (AAV-cTnT vector, FIG. 10), the “suppression of beat-to-beat variability” value was “did not suppress beat-to-beat variability”. The “IC50 / potency of CaMKII inhibition compared with AIP” value with CaMKII was “lower IC50 than AIP; also recorded: more potent inhibitor of CaMKII than AIP”. “YKKALHRQEAVDALYKKALHRQEAVDALYKKALHRQEAVDAL [AIP×3]” yielded an EC50 at CaMKIIδ of 543 nM.

B1: AIPx5 multimer (peptide)
peptide: T1 chain
As for B1, the EC50 (inhibition of CaMKIIδ activity, ADP-GLO bioluminescent ADP monitoring assay) in the data set with CaMKIIδ, Q13557 came to 114 nM. KRAPKLGQIGRQKAVDIED [CN19o] gave an EC50 (inhibition of CaMKIIδ activity, ADP-GLO bioluminescent ADP monitoring assay) with CaMKIIδ, Q13557 of 1.6 nM. Turning to YKKALHRQEAVDAL [autocamtide-2-related inhibitory peptide (AIP)], the EC50 (inhibition of CaMKIIδ activity, ADP-GLO bioluminescent ADP monitoring assay) in the data set with CaMKIIδ, Q13557 was determined as 6150 nM. In the case of YKKALHRQEAVDALYKKALHRQEAVDALYKKALHRQEAVDAL [AIPx3 multimer], in the data set with CaMKIIδ, Q13557, the EC50 (inhibition of CaMKIIδ activity, ADP-GLO bioluminescent ADP monitoring assay) is 543 nM.

B2: CN19oX3 multimer (peptide)
peptide: KRAPKLGQIGRQKAVDIEDKRAPKLGQIGRQKAVDIEDKRAPKLGQIGRQKAVDIED
In the data set with CaMKIIδ, Q13557, B2 showed an EC50 (inhibition of CaMKIIδ activity, ADP-GLO bioluminescent ADP monitoring assay) of 2.1 nM.

B3: CaMKII (endogenous, mouse heart) (protein)
chain: MATTATCTRFTDDYQLFEELGKGAFSVVRRCVKKTSTQEYAAKIINTKKLSARDHQKLEREARICRLLKHPNIVRLHDSISEEGFHYLVFDLVTGGELFEDIVAREYYSEADASHCIHQILESVNHIHQHDIVHRDLKPENLLLASKCKGAAVKLADFGLAIEVQGEQQAWFGFAGTPGYLSPEVLRKDPYGKPVDIWACGVILYILLVGYPPFWDEDQHKLYQQIKAGAYDFPSPEWDTVTPEAKNLINQMLTINPAKRITADQALKHPWQRSTVASMMHRQETVECLRKFNARRKLKGAILTTMLVSRNFSAAKSLLNKKSDGGVKKRKSSSSVHLMPQSNNKNSLVSPAQEPAPLQTAMEPQTTVVHNATDGIKGSTESCNTTTEDEDLKAAPLRTGNGSLVPEGRSPRDRTAPSAGMQPQPSLCSSAMRKQEIIKITEQLIEAINNGDFEAYTKICDPGLTSFEPEALGNLVEGMDFHKFYFENLLSKNSKPIHTTILNPHVHVIGEDAACIAYIRLTQYIDGQGRPRTSQSEETRVWHRRDGKWLNVHYHCSGAPAAPLQ
For the molecule B3, the “phosphorylation of phospholamban (PLB) at threonine-17 in heart tissue exposed to isoproterenol (capillary Western, pPLB/PLB)” value (in the data set with AIPx5 multimer; in data set [1]) was “contacting cells with AIP or AIP×5 resulted in a statistically significant decrease in PLB phosphorylation in cells exposed to ISO” each time.
